Source: PMC12205362

Tested on: MutS (Cy3-labeled) (Escherichia coli)
Experiment: smFRET (TIRF)
Conditions: GT mismatch, amino-dT, smTIRF FRET on surface-immobilized plasmids, imaging buffer and temperature not in material, dCas9 RNP assembled in 30 mM HEPES, 150 mM KCl, pH 7.5, MutS with …; for binding signal (fold lower k-1 vs RC): ATP

Substance: pUC19HL_MutS GT mismatch, relaxed circular (RC)
- binding signal (covalently closed relaxed circle): 0.204 s-1 (koff)

Substance: pUC19HL_MutS GT mismatch, negatively supercoiled (-)SC
- binding signal (fold lower k-1 vs RC) (k1 ~1.3x higher than RC, negatively supercoiled by gyrase, average sigma -0.07): 1.3
- binding signal (negatively supercoiled by gyrase, average sigma -0.07): 0.075 s-1 (koff)

Substance: pUC19HL_MutS GT mismatch, positively supercoiled (+)SC
- binding signal (fold lower k-1 vs RC) (k1 similar to RC, positively supercoiled by 9N reverse gyrase, average sigma +0.03): 1.3
- binding signal (positively supercoiled by 9N reverse gyrase, average sigma +0.03): 0.107 s-1 (koff)
